Source: the supplement of paper PMC9170038

Tested on: MS2 coat protein
Test: apparent KD of MS2 coat protein; designed switch direction (-1 OFF switch, 1 ON switch): 1; higher = weaker reporter binding
Summary of the method: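 RNA switches sharing common flanks were transcribed by stalled E. coli RNA polymerase on Illumina chips. A doubling series of SNAP-549-labelled MS2 coat protein, from 0.7 or 1.5 nM to 3 µM, was applied in Tris-HCl pH 7.5 buffer with KCl, MgCl2, BSA, DTT, tRNA and Tween-20. Each step lasted 0.8–1.5 h at the bottom of the series and 10–20 min at the top. Normalised cluster fluorescence was curve-fitted, giving apparent KD as the per-design median over clusters.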

[1] = input ligand: microRNA oligo, concentration not stated
[2] = Eterna round: R95, input ligand: FMN 200 uM
[3] = Eterna round: R95, input ligand: microRNA oligo, concentration not stated
[4] = Eterna round: R95, input ligand: none

Sequence	apparent KD of MS2 coat protein (input ligand: FMN 200 uM) [nM]	apparent KD of MS2 coat protein [1] [nM]	apparent KD of MS2 coat protein (input ligand: none) [nM]	apparent KD of MS2 coat protein [2] [nM]	apparent KD of MS2 coat protein [3] [nM]	apparent KD of MS2 coat protein [4] [nM]
GAGGGACGGACGAACAUGAGGAUCACCCAUGUCCUCGGAGGUCAGGAUAUCCGGAGGUAGCCGAAGGAGAAGGGACGGUGAACC [AK SSNG3-V2-31.1] (Eterna round: R96, puzzle: Same State NG 3)	104	51.5	85.7			
GAGGGCGAAAGCAACAUGAGGAUCACCCAUGUUGUCGGAGGGCAGGAUAUCCGGCGAAAGCAGAAGGAGAAGGGUCGAAAAGAA [AK SSNG3-V2-39] (Eterna round: R96, puzzle: Same State NG 3)	15.5	13.1	21.4			
GAGUAGGAGUUACAGGAUAUAUGGAGGUGGACAUGAGGAUCACCCAUGUGAGAGAUGAGAGGAGGAUAGAAGGGUAAGGGAGUAA [JR_SS2_Sub029] (puzzle: Same State 2)				189	153	486
GAGUAGUUGGGAGGAUAUCGAUUGUUAUAGAAUCGAGAAGGUUUUAACAUGAGGAUCACCCAUGUAGGACUAUUCCUGUGUAUC [Parity 73 - Jieux - Same State NG 1] (Eterna round: R96, puzzle: Same State NG 1)	127	68.5	107			
GAGUGGAGGAGAGGAUAUACAAUGAUAAUCACAGUAGAAGGUUCUAACAUGAGGAUCACCCAUGUAGGACUAUACCUGAGAGAA [Parity 48 - Jieux - Same State NG 1] (Eterna round: R96, puzzle: Same State NG 1)	12.7	9.96	16			
GAGUGGAGGAGAGGAUAUACAUUGAUAAUCACUGUAGAAGGUUCUAACAUGAGGAUCACCCAUGUAGGACUAUUCCUGAGAGUU [Parity 52 - Jieux - Same State NG 1] (Eterna round: R96, puzzle: Same State NG 1)	8.87	10.1	12.5			
GAGUGGCGAUUAGGAUAUACAGUGAUAAUGAUAGUAGAAGGAAUUGACAUGAGGAUCACCCAUGUAGGACUAAUCCAGAGAGAG [Parity 30 - Jieux - Same State NG 1] (Eterna round: R96, puzzle: Same State NG 1)		57				
GAGUUACAUGAGGAUCACCCAUGUGGUUGUGGAUAAGGAUAUAUGGUAGGAGGAGGAAUGAUAGAAGGUAUUAGGG [JR_SS1_Sub065] (puzzle: Same State 1)					52.9	
GCACUCCAAGGAGCUGCGACAUGAGGAUCACCCAUGUAAUCACAGGAUAUGCGAUUCCGAAUUUUGCAGAAGGGUGAUAAGAAC [Ratele] (Eterna round: R96, puzzle: Same State NG 3)	139	18	106			
GCAGAACAUGAGGAUCACCCAUGUCUCAAAUAUUGAGGAUAUGGACACGGUAUAUCCGAACCAGAAGGCAAACUGC [SS1 Teenbexe 19] (puzzle: Same State 1)				55.8	74.5	64
GCAGAACAUGAGGAUCACCCAUGUCUCUAAUAUUGAGGAUAUGGGCACGGUAUAUCCGAACCAGAAGGCGAACUGC [SS1 Teenbexe 16] (puzzle: Same State 1)				420	322	431
GCCAACGCAUGAGGAUAUGGCACCUUAUUGGUGCCAGAAGGUAUGUGUAUUCACAUGAGGAUCACCCAUGUAUUAUAGUUGGCA [Fiskers NG1ss - 17] (Eterna round: R96, puzzle: Same State NG 1)	53.7	146	183			
GCCAUCGCAUGAGGAUAUGGCACCGUUUCGGUGCCAGAAGGCAUGUCGAAUGACAUGAGGAUCACCCAUGUAGUAUAGAUGGCA [JL Fiskers NG1ss - 33 mod 10] (Eterna round: R96, puzzle: Same State NG 1)	59	377	851			
GCCAUCGUAUGAGGAUAUGGCACCGAAACGGUGCCAGAAGGCAUGUCAAUUGACAUGAGGAUCACCCAUGUAUUAUCGAUGGCA [Mat - Same State NG 1 - JL mod - D89] (Eterna round: R96, puzzle: Same State NG 1)		454				
GCCAUCGUGUGAGGAUAUGGCACCGAAACGGUGCCAGAAGGCAUGUCAAUUGACAUGAGGAUCACCCAUGUAUUAGCGAUGGCA [Mat - Same State NG 1 - JL mod - D86] (Eterna round: R96, puzzle: Same State NG 1)	181	994	1360			
GCCGCGUUUCGCGCCUACAUGAGGAUCACCCAUGUUUGUAGGCAGGAUAUCGUCCGCUCUGCGGGCGAGAAGGGCUGUUGUGGU [salish99_SSNG3_R04_024] (Eterna round: R96, puzzle: Same State NG 3)	65.6	58.1	86.7			
GCCGCGUUUCGCGCCUACAUGAGGAUCACCCAUGUUUGUAGGCAGGAUAUCGUUUGCUUUGCAAACGAGAAGGGCUGUUGUGGC [salish99_SSNG3_R04_012] (Eterna round: R96, puzzle: Same State NG 3)	29.9	47.2	50.2			
GCCGGCUAAUGAGGAUAUGGCACCUUAUUGGUGCCAGAAGGCAUGUCAAUUGACAUGAGGAUCACCCAUGUAUUAUAGUUGGCG [salish99_SSNG1_r04_603] (Eterna round: R96, puzzle: Same State NG 1)		211				
GCCGGCUGGUGAGGAUAUGGCGCCUUGUUGGUGCCAGAAGGCAUGUCUUUUGACAUGAGGAUCACCCAUGUGUUGUCGUUGGCG [salish99_SSNG1_r04_613] (Eterna round: R96, puzzle: Same State NG 1)	221	72.3	47.8			
GCCGUAAACAUGAGGAUCACCCAUGUAAACGCGAGAGUGGAUGAGGAUAUCGAUGGGUUUCCCGUCGAGAAGGCGUGGGUCGGC [JL SSNG3 3.99] (Eterna round: R96, puzzle: Same State NG 3)	36.2	31.8	46.1			
GCGAGCGUACUUGCUACAUGAGGAUCACCCAUGUCUGUUGGACAGGAUAUGGUACCGUUUCGGUACCAGAAGGGUUCAUCAUGU [JL SSNG3 3.74] (Eterna round: R96, puzzle: Same State NG 3)	439	74	262			
GCGAGCGUACUUGCUACAUGAGGAUCACCCAUGUUCAUUGGACAGGAUAUGGUACCGUUUCGGUACCAGAAGGGUUCAUCAUGU [JL SSNG3 3.73] (Eterna round: R96, puzzle: Same State NG 3)	1190	26.6	585			
GCGAGCGUACUUGCUACAUGAGGAUCACCCAUGUUCGUUGGACAGGAUAUGGUACCGUUUCGGUACCAGAAGGGUUCAUCAUGU [JL SSNG3 3.75] (Eterna round: R96, puzzle: Same State NG 3)	356	188	278			
GCGGUCUGACAUGAGGAUCACCCAUGUGGAAUAAAUACGGGUUAGGAUAUCUUGAGGAUCACCCAAGAGAAGGGAUGGACCGCU (Eterna round: R96, puzzle: Same State NG 3)	32.1	22.8	38.4			
GCUACCAAUGAAGCCAACAUGAGGAUCACCCAUGUAUGUUGGCAGGAUAUCGAUUGCAAAGCGAUCGAGAAGGGCUAAGGUAGC [Mat - Same State NG 3 - JL Mod - D87] (Eterna round: R96, puzzle: Same State NG 3)	107	120	177			
GCUAGAAUAAAAGCCAACAUGAGGAUCACCCAUGUAUGUUGGCAGGAUAUCGUAUGCAAAGCAUACGAGAAGGGCCAUACUAGC [Mat - Same State NG 3 - JL Mod - D24] (Eterna round: R96, puzzle: Same State NG 3)	49.8	96.7	121			
GCUAGUAUUAUUGUCAACAUGAGGAUCACCCAUGUAUGUUGGCAGGAUAUCGUUUGCUUUGCAAACGAGAAGGGCUAAACUAGC [JL SSNG3 1.04] (Eterna round: R96, puzzle: Same State NG 3)	61.2	145	231			
